# Test results published in article PMC12055985 (Nature Communications, 2025).
# Tests used:
# Nb14-Fc = Nb14-Fc (camel); assay: SPR
# Nb32-Fc = Nb32-Fc (camel); assay: SPR
Binder,Kd (Nb14-Fc) [nM],Kd (Nb32-Fc) [nM]
HSV-1 gD (aa1-275) with C-terminal His tag (domain or fragment) KYALADASLKMADPNRFRGKDLPVLDQLTDPPGVRRVYHIQAGLPDPFQPPSLPITVYYAVLERACRSVLLNAPSEAPQIVRGASEDVRKQPYNLTIAWFRMGGNCAIPITVMEYTECSYNKSLGACPIRTQPRWNYYDSFSAVSEDNLGFLMHAPAFETAGTYLRLVKINDWTEITQFILEHRAKGSCKYALPLRIPPSACLSPQAYQQGVTVDSIGMLPRFIPENQRTVAVYSLKIAGWHGPKAPYTSTLLPPELSETPNATQPELAPEDPED,1.14,0.0367
HSV-2 gD (aa1-275) with C-terminal His tag (domain or fragment) KYALADPSLKMADPNRFRGKNLPVLDQLTDPPGVKRVYHIQPSLEDPFQPPSIPITVYYAVLERACRSVLLHAPSEAPQIVRGASDEARKHTYNLTIAWYRMGDNCAIPITVMEYTECPYNKSLGVCPIRTQPRWSYYDSFSAVSEDNLGFLMHAPAFETAGTYLRLVKINDWTEITQFILEHRARASCKYALPLRIPPAACLTSKAYQQGVTVDSIGMLPRFIPENQRTVALYSLKIAGWHGPKPPYTSTLLPPELSDTTNATQPELVPEDPED,0.0831,0.0434
